Measured values reported in patent US20240002528A1 (University of Texas, published 2024).
Blank lines part the entries; values can stand above or below the binder they belong to.

How the values were obtained:
[1] = biological target: T1, full-length human cystinosin-LKG with a C-terminal Flag tag (human, UniProt O60931-2 23-400, limits assumed); assay: size-exclusion chromatography (gel filtration) of Cystinosin incubated with Fab3H5 at a 1:1.5 molar ratio, with a polyacrylamide gel of the peak fraction; the sheet is marked pH7.0
T1 construct: Expressed in HEK-293S GnTI- cells and purified in DDM then digitonin; It was reconstituted in amphipols for immunisation; also called recombinant human Cystinosin; wild-type (WT) human Cystinosin; not shown: C-terminal Flag tag
T1 sequence (looked up): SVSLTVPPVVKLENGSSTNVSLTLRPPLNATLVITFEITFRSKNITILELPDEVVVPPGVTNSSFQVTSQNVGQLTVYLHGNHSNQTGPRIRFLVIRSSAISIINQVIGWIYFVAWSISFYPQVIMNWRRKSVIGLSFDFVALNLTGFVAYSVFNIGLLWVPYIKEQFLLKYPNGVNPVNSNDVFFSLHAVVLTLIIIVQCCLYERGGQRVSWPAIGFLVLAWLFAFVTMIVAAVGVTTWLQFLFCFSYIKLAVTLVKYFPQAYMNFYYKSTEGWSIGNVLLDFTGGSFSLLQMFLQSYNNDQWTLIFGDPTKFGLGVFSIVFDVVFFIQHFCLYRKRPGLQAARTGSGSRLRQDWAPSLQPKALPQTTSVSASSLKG
Method: To assemble Cystinosin-Fab^3H5 complex, purified Cystinosin was incubated with Fab^3H5 at a 1:1.5 molar ratio at 4° C. for 30 minutes. The mixture was then purified by SEC using the aforementioned buffer (FIG. 1A). Peak fractions were collected and concentrated to […]. The isolated complex was then used for functional and structural studies. In particular the complex was used in Cryo-EM studies.

[2] = biological target: T1, full-length human cystinosin-LKG with a …; assay: ELISA and immunoprecipitation screen of hybridoma supernatants; ELISA and immunoprecipitation screen of hybridoma clone (folded cystinosin)

binding result [1]: binds
B1: Fab3H5 (Fab fragment of IgG-3H5 generated by papain cleavage) (Fab, V domains shown)
VH: EVMLVESGGGLVKPGGSLKLSCAASGFTFSNYAMSWVRQTPEKRLEWVAAISGNEGTYTYYPDSVRGRFTISRDNARNNLYLQISSLRSEDTALYYCARYGLVGALDFWGQGAS
VL: DIQMNQSPSTLSASLGDTITITCRASQNIDVWLNWYQQKPGDIPKLLIYEASNLHTGVPSRFSGSGSGTDFTLAISSLQPEDIATYYCLQGQDYPFTFGSGTK
notes: The reaction was stopped with iodoacetamide

binding result [2]: binds
B2: IgG-3H5, a mouse monoclonal anti-human Cystinosin antibody (antibody, V domains shown)
VH: B1 VH
VL: B1 VL
notes: also called 3H5 antibody; monoclonal antibody 3H5
